B1: TRIM43 (parent)
chain: NNSWIRKNSTMVNSEDIFLLLCLK

Variants of: B1
Assay: protein stability index of a GFP-peptide fusion (GPS, HEK-293T) (PSI 1-6); higher = more stable
Conditions: c terminus: a fixed tail appended
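Note: lentivirally expressed fusions sorted by FACS into six bins by GFP to DsRed ratio, PSI derived from sequencing read proportions per bin multiplied by bin number.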

Going from NNSWIRKNSTMVPSEDIFLLLCLK [N13P] to NNSWIRKNSTMVYSEDIFLLLCLK [N13Y], the protein stability index falls from 2.87 to 2.33.

Going from NNSWIRKNSTMVLSEDIFLLLCLK [N13L] to NNSWIRKNSTMVMSEDIFLLLCLK [N13M], the protein stability index rises from 2.44 to 3.59.

Compared with NNSWIRKNSTMVCSEDIFLLLCLK [N13C], WNSWIRKNSTMVNSEDIFLLLCLK [N1W] is lower in protein stability index: 3.44 for the first, 2.36 for the second.

Going from MNSWIRKNSTMVNSEDIFLLLCLK [N1M] to HNSWIRKNSTMVNSEDIFLLLCLK [N1H], the protein stability index rises from 2.72 to 3.28.

Going from NNAWIRKNSTMVNSEDIFLLLCLK [S3A] to NNIWIRKNSTMVNSEDIFLLLCLK [S3I], the protein stability index falls from 3.59 to 2.78.

Going from NNEWIRKNSTMVNSEDIFLLLCLK [S3E] to NNSWIRKNSTMVNSEDIFLLVCLK [L21V], the protein stability index rises from 3.25 to 3.54.

Going from NNSWIRKNSTMVNSEDIFLLKCLK [L21K] to NNSWIRKNSTMVNSEDIFLLYCLK [L21Y], the protein stability index rises from 2.58 to 2.9.

Compared with NNSWIRKYSTMVNSEDIFLLLCLK [N8Y], NNSWIRKISTMVNSEDIFLLLCLK [N8I] is lower in protein stability index: 3.85 for the first, 2.73 for the second.

Going from NNSWIRKRSTMVNSEDIFLLLCLK [N8R] to NNSPIRKNSTMVNSEDIFLLLCLK [W4P], the protein stability index falls from 3.47 to 2.73.

Going from NNSDIRKNSTMVNSEDIFLLLCLK [W4D] to NNSHIRKNSTMVNSEDIFLLLCLK [W4H], the protein stability index rises from 2.64 to 3.

Compared with NLSWIRKNSTMVNSEDIFLLLCLK [N2L], NSSWIRKNSTMVNSEDIFLLLCLK [N2S] is higher in protein stability index: 2.46 for the first, 2.48 for the second.

Compared with NDSWIRKNSTMVNSEDIFLLLCLK [N2D], NVSWIRKNSTMVNSEDIFLLLCLK [N2V] is higher in protein stability index: 1.88 for the first, 2.46 for the second.

Compared with NYSWIRKNSTMVNSEDIFLLLCLK [N2Y], NNSWIRKNSTMVNPEDIFLLLCLK [S14P] is lower in protein stability index: 3.58 for the first, 2.1 for the second.

First: NNSWIRKNSTMVNCEDIFLLLCLK [S14C]
Second: NNSWIRKNSTMVNREDIFLLLCLK [S14R]
The protein stability index of the first is higher: 2.79 for the first, 2.77 for the second.

Going from NNSWIRKNSTMVNVEDIFLLLCLK [S14V] to NNSWIRKNSTMVNSEVIFLLLCLK [D16V], the protein stability index falls from 3.6 to 2.92.

Compared with NNSWIRKNSTMVNSEMIFLLLCLK [D16M], NNSWIRKNSTMVNSEDIFLLLCLT [K24T] is lower in protein stability index: 2.45 for the first, 2.05 for the second.

Going from NNSWIRKNSTMVNSEDIFLLLCLE [K24E] to NNSWIRKNSTMVNSEDNFLLLCLK [I17N], the protein stability index falls from 4.39 to 1.85.

Compared with NNSWIRKNSTMVNSEDDFLLLCLK [I17D], NNSWIRKNSTMVNSEDVFLLLCLK [I17V] is higher in protein stability index: 1.93 for the first, 2.24 for the second.

Going from NNSWIRKNSTMVNSEDPFLLLCLK [I17P] to NNSWIRKNSTMVNSEDQFLLLCLK [I17Q], the protein stability index rises from 1.93 to 3.35.

Going from NNSWIRKNSTHVNSEDIFLLLCLK [M11H] to NNSWIRKNSTQVNSEDIFLLLCLK [M11Q], the protein stability index rises from 2.44 to 3.54.

Compared with NNSWIRKNSTCVNSEDIFLLLCLK [M11C], NNSWIRKNSTAVNSEDIFLLLCLK [M11A] is higher in protein stability index: 2.06 for the first, 2.1 for the second.

Compared with NNSWIRKNSTIVNSEDIFLLLCLK [M11I], NNSWIRKNSTDVNSEDIFLLLCLK [M11D] is higher in protein stability index: 1.89 for the first, 2.95 for the second.

Compared with NNSWIRKNSTYVNSEDIFLLLCLK [M11Y], NNSWIRKNSTGVNSEDIFLLLCLK [M11G] is higher in protein stability index: 2.99 for the first, 3.08 for the second.

Compared with NNSWIRKNSTMVNSEDIFLKLCLK [L20K], NNSWIRKNSTMVNSGDIFLLLCLK [E15G] is lower in protein stability index: 2.36 for the first, 2.29 for the second.

Compared with NNSWIRKNSTMVNSRDIFLLLCLK [E15R], NNSWIRKNSTMVNSQDIFLLLCLK [E15Q] is higher in protein stability index: 1.25 for the first, 4.22 for the second.

First: NNSWIRKNSTMVNSSDIFLLLCLK [E15S]
Second: NNSWIRKNSTMVNSTDIFLLLCLK [E15T]
The protein stability index of the first is higher: 2.47 for the first, 1.65 for the second.

Going from NNSWIRKNSTMVNSLDIFLLLCLK [E15L] to NNSWNRKNSTMVNSEDIFLLLCLK [I5N], the protein stability index rises from 2.44 to 3.07.

First: NNSWLRKNSTMVNSEDIFLLLCLK [I5L]
Second: NNSWRRKNSTMVNSEDIFLLLCLK [I5R]
The protein stability index of the first is higher: 2.8 for the first, 2.13 for the second.

Going from NNSWIRKNSTMVNSEDIILLLCLK [F18I] to NNSWIRKNSTMVNSEDIPLLLCLK [F18P], the protein stability index falls from 3.7 to 1.85.

Compared with NNSWIRKNSTMVNSEDIALLLCLK [F18A], NNSWIRKNSTMVNSEDICLLLCLK [F18C] is higher in protein stability index: 1.7 for the first, 2.71 for the second.

Compared with NNSWIRKNSEMVNSEDIFLLLCLK [T10E], NNSWIRKNSNMVNSEDIFLLLCLK [T10N] is lower in protein stability index: 2.91 for the first, 2.17 for the second.

Going from NNSWIRKNSMMVNSEDIFLLLCLK [T10M] to NNSWIRKNSPMVNSEDIFLLLCLK [T10P], the protein stability index rises from 2.48 to 2.82.

First: NNSWICKNSTMVNSEDIFLLLCLK [R6C]
Second: NNSWINKNSTMVNSEDIFLLLCLK [R6N]
The protein stability index of the first is lower: 3.31 for the first, 3.63 for the second.

First: NNSWIAKNSTMVNSEDIFLLLCLK [R6A]
Second: NNSWIRKNETMVNSEDIFLLLCLK [S9E]
The protein stability index of the first is lower: 2.27 for the first, 2.68 for the second.

First: NNSWIRKNDTMVNSEDIFLLLCLK [S9D]
Second: NNSWIRKNPTMVNSEDIFLLLCLK [S9P]
The protein stability index of the first is lower: 3.01 for the first, 3.63 for the second.

Compared with NNSWIRKNHTMVNSEDIFLLLCLK [S9H], NNSWIRKNATMVNSEDIFLLLCLK [S9A] is higher in protein stability index: 2.91 for the first, 2.99 for the second.

Going from NNSWIRKNSTMVNSEDIFLLLCHK [L23H] to NNSWIRKNSTMVNSEDIFLLLCGK [L23G], the protein stability index falls from 2.61 to 1.44.

Compared with NNSWIRKNSTMVNSEDIFLLLCRK [L23R], NNSWIRKNSTMVNSEDIFLLLCWK [L23W] is higher in protein stability index: 1.55 for the first, 3.66 for the second.

Going from NNSWIRKNSTMVNSEDIFLLLCAK [L23A] to NNSWIRKNSTMWNSEDIFLLLCLK [V12W], the protein stability index falls from 2.83 to 2.41.

Going from NNSWIRKNSTMGNSEDIFLLLCLK [V12G] to NNSWIRKNSTMCNSEDIFLLLCLK [V12C], the protein stability index falls from 2.21 to 1.62.

First: NNSWIRKNSTMSNSEDIFLLLCLK [V12S]
Second: NNSWIRKNSTMYNSEDIFLLLCLK [V12Y]
The protein stability index of the first is higher: 4.3 for the first, 3.38 for the second.

Compared with NNSWIRKNSTMHNSEDIFLLLCLK [V12H], NNSWIRKNSTMVNSEDIFWLLCLK [L19W] is higher in protein stability index: 1.81 for the first, 2.33 for the second.

Compared with NNSWIRKNSTMVNSEDIFELLCLK [L19E], NNSWIRKNSTMVNSEDIFGLLCLK [L19G] is higher in protein stability index: 1.79 for the first, 1.8 for the second.

Compared with NNSWIRKNSTMVNSEDIFHLLCLK [L19H], NNSWIRQNSTMVNSEDIFLLLCLK [K7Q] is higher in protein stability index: 1.7 for the first, 2.47 for the second.

Compared with NNSWIRWNSTMVNSEDIFLLLCLK [K7W], NNSWIRDNSTMVNSEDIFLLLCLK [K7D] is lower in protein stability index: 2.95 for the first, 2.54 for the second.

First: NNSWIRCNSTMVNSEDIFLLLCLK [K7C]
Second: NNSWIRKNSTMVNSEDIFLLLNLK [C22N]
The protein stability index of the first is higher: 2.73 for the first, 2.32 for the second.

Going from NNSWIRKNSTMVNSEDIFLLLLLK [C22L] to NNSWIRKNSTMVNSEDIFLLLQLK [C22Q], the protein stability index falls from 3.17 to 2.06.

From the supplement of paper PMC10567573
